One block for each molecule: values may come before it. Ends that are not written are not given here. Peptide text beside a SMILES is read from it. * marks the point of attachment. Dansyl = CN(C)c1cccc2c(S(=O)(=O)*)cccc12
Assays:
Gαo-GDP = Gαo-GDP (Drosophila melanogaster, UniProt P16378); test: biochemical
Protocol: (§1) Hexahistidine-tagged Drosophila Gαo, Gαo[W132F; W212F] and Gαo[W132F; W259F] were purified following. In brief, Top10 bacteria transformed with the corresponding construct were grown in LB media until an OD600=0.6, expression was induced with 0.1 mM IPTG and cells further grown overnight at room temperature. Cells were harvested, resuspended in PBS supplemented with Complete Protease Inhibitor cocktail (Roche) and lysed with Lysozyme and sonication. Binding of the His6 tagged proteins to the Ni-NTA agarose was conducted in 10 mM Imidazole in PBS. After washing in 20 mM Imidazole/PBS the proteins were eluted in 200–250 mM Imidazole/PBS. […] The 36-mer GoLoco1 peptide and the GoLoco1 peptide with the dansyl (5-(dimethylamino)naphthalene-1-sulfonyl) group attached to the side chain of the N-terminal lysine were synthesized by Pepscan Presto BV. Non-dansylated GoLoco1 was dissolved in water, dansyl-GoLoco1 was dissolved at 10 mM in 50% propan-2-ol and stored at -20°C.
(§2) Fluorescence measurements were performed at RT using the Biotek SynergyMx plate reader. For all experiments, the Gαo subunits were pre-incubated with 1 mM GDP or GTPγS for >30 min at RT. For FRET measurements, preloaded Gαo was added in a final concentration of 10 μM to increasing concentration of dansylated GoLoco1 in HKB (50 mM Hepes-KOH, 100 mM KCl, 10 mM NaCl, 2 mM EGTA, 5 mM MgCl2, 1 mM DTT) and incubated for 30 min before measurement.

Gαo-GTPγS [1] = biological target: T1, Gαo-GTPγS (Drosophila melanogaster, UniProt P16378); test: biochemical
Protocol: as §1, §2

Gαo-GTPγS [2] = biological target: T1, Gαo-GTPγS; test: biochemical; format: binding; design: His6 (hexahistidine); made in house; host or cells: E. coli Top10
Protocol: Trp-to-dansyl FRET was measured as above.

[3] = biological target: Hexahistidine-tagged Drosophila Gαo (class II isoform), wild type (Drosophila); test: FRET or BRET; competition: Gαo preloaded with GDP and dansylated GoLoco1 at 1:1 (5–10 μM), pre-incubated 10 min, then increasing unlabelled GoLoco1 in HKB, 30 min, RT; Trp-to-dansyl FRET
[4] = biological target: Hexahistidine-tagged Drosophila Gαo (class II isoform), wild type (Drosophila); test: FRET or BRET; competition: Gαo preloaded with GTPγS and dansylated GoLoco1 at 1:1 (5–10 μM), pre-incubated 10 min, then increasing unlabelled GoLoco1 in HKB, 30 min, RT; Trp-to-dansyl FRET
[5] = biological target: Hexahistidine-tagged Drosophila Gαo[W132F; W259F] (Drosophila); test: FRET or BRET; quenching of the donor: tryptophan fluorescence (excitation 280 nm, emission 330 nm) of 5 μM Gαo preloaded with GDP, 30 min with dansylated against unlabelled GoLoco1, RT; E = 1 - FD-A/FD
[6] = biological target: Hexahistidine-tagged Drosophila Gαo[W132F; W212F] (Drosophila); test: as above
[7] = biological target: Hexahistidine-tagged Drosophila Gαo (class II isoform), wild type (Drosophila); test: as above
[8] = biological target: Hexahistidine-tagged Drosophila Gαo (class II isoform), wild type (Drosophila); test: FRET or BRET; Trp-to-dansyl FRET (excitation 280 nm, emission 535 nm), saturation: 10 μM Gαo preloaded with 1 mM GDP added to increasing dansylated GoLoco1; HKB buffer (50 mM Hepes-KOH, 100 mM KCl, 10 mM NaCl, 2 mM EGTA, 5 mM MgCl2, 1 mM DTT), 30 min, RT
[9] = biological target: Hexahistidine-tagged Drosophila Gαo (class II isoform), wild type (Drosophila); test: FRET or BRET; Trp-to-dansyl FRET (excitation 280 nm, emission 535 nm), saturation: 10 μM Gαo preloaded with 1 mM GTPγS added to increasing dansylated GoLoco1; HKB buffer, 30 min, RT
[10] = biological target: Hexahistidine-tagged Drosophila Gαo[W132F; W259F] (Drosophila); test: FRET or BRET; quenching of the donor: tryptophan fluorescence (excitation 280 nm, emission 330 nm) of 5 μM Gαo preloaded with GTPγS, 30 min with dansylated against unlabelled GoLoco1, RT; E = 1 - FD-A/FD

Sequence of Gαo-GDP (P16378 other isoform, or with tags, fused parts or gaps): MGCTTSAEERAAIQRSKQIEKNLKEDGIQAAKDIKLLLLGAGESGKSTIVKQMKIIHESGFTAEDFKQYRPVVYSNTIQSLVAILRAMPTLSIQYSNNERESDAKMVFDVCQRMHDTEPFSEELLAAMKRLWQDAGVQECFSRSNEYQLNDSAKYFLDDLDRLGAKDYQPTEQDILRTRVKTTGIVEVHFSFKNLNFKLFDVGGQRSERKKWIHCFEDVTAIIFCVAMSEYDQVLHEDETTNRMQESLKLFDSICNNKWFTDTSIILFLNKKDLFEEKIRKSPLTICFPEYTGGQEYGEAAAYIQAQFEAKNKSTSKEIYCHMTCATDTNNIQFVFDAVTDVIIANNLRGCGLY
T1 sequence (P16378 other isoform, or with tags, fused parts or gaps): as above

Molecule: KDDDFFEMLSRSQSKRMDDQRCSIKVNPSGAPAVAT [GoLoco1]
Ki (Gαo-GDP): 17.6 µM
Ki (Gαo-GTPγS [1]): 10.6 µM

Molecule: CC[C@H](C)[C@H](NC(=O)[C@H](CO)NC(=O)[C@H](CS)NC(=O)[C@H](CCCNC(=N)N)NC(=O)[C@H](CCC(N)=O)NC(=O)[C@H](CC(=O)O)NC(=O)[C@H](CC(=O)O)NC(=O)[C@H](CCSC)NC(=O)[C@H](CCCNC(=N)N)NC(=O)[C@H](CCCCN)NC(=O)[C@H](CO)NC(=O)[C@H](CCC(N)=O)NC(=O)[C@H](CO)NC(=O)[C@H](CCCNC(=N)N)NC(=O)[C@H](CO)NC(=O)[C@H](CC(C)C)NC(=O)[C@H](CCSC)NC(=O)[C@H](CCC(=O)O)NC(=O)[C@H](Cc1ccccc1)NC(=O)[C@H](Cc1ccccc1)NC(=O)[C@H](CC(=O)O)NC(=O)[C@H](CC(=O)O)NC(=O)[C@H](CC(=O)O)NC(=O)[C@@H](N)CCCCNS(=O)(=O)c1cccc2c(N(C)C)cccc12)C(=O)N[C@@H](CCCCN)C(=O)N[C@H](C(=O)N[C@@H](CC(N)=O)C(=O)N1CCC[C@H]1C(=O)N[C@@H](CO)C(=O)NCC(=O)N[C@@H](C)C(=O)N1CCC[C@H]1C(=O)N[C@@H](C)C(=O)N[C@H](C(=O)N[C@@H](C)C(=O)N[C@H](C(=O)O)[C@@H](C)O)C(C)C)C(C)C [dGoLoco1] (H-K(Dansyl)DDDFFEMLSRSQSKRMDDQRCSIKVNPSGAPAVAT-OH)
Kd (Gαo-GTPγS [2]): 2.1 µM
Kd (Gαo-GDP): 4.6 µM

Ki [3]: 17.6 µM
Ki [4]: 10.6 µM
Molecule: GoLoco1 peptide of Drosophila Pins (unlabelled)

FRET efficiency E [5]: 0.544
FRET efficiency E [6]: 0.478
FRET efficiency E [7]: 0.474
Kd [8]: 4.6 µM
Kd [9]: 2.1 µM
FRET efficiency E [10]: 0.127
Molecule: dansylated GoLoco1 peptide of Drosophila Pins
